Assay results taken from patent publication US20130089540A1 (BIOEX THERAPEUTICS, published 2013).
Substitutions are numbered along the chain they refer to. Each block holds one binder with its values, some of them ahead of it.

Key:
CD20 [1] = target: T1, CD20 (UniProt P11836 1-297, limits assumed); experiment: FACS on CD20+ Ramos cells (FIG. 12 legend)
T1 construct: whole, on cells; also called CD20 on CD20+ Ramos cells; antigen
T1 sequence (looked up): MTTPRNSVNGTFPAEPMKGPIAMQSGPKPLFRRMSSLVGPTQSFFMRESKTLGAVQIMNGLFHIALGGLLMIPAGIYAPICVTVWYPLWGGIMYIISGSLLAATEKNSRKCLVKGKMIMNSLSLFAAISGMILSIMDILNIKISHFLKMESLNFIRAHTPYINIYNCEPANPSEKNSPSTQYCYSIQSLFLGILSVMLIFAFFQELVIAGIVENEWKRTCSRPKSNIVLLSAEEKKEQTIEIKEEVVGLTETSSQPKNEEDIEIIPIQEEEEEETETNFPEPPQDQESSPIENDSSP
Protocol: (§1) The specific binding to CD20 was detected by using CD20+ Ramos cell (ATCC) and T lymphocyte leukemia Jurkat cell (ATCC). Cells were incubated with various concentration of antibodies for 1 hour at 4° C. After washing with PBS for 3 times, 1:100 diluted FITC labeled anti-human Fc γ specific second antibody (The Jakson Laboratory) was added and incubated for 1 h at 4° C. After washing with PBS for three times, specific binding was analyzed by FACS instrument.

CD20 [2] = target: T1, CD20; experiment: FACS on CD20+ Ramos cells, FITC anti-human Fc gamma second antibody
Protocol: as §1

binding result (CD20 [1]): binds
B1: humanized anti-CD20 antibody 1635 (antibody, human IgG1, V domains shown)
VH: QVQLVQSGAEVKKPGASVKVSCKASGYTFTSYNMHWVRQAPGKGLEWIGAIYPGNGDTSYNQKFKGRVTITADKSTSTAYMELSSLRSEDTAVYYCARSTYYGGDWYFNVWGQGTTVTVSS
VL: DVVMTQSPAFLSVTPGEKVTITCRASSSVSYIHWFQQKPGKAPKPLIYATSNLASGVPSRFSGSGSGTDFTLTINSLEAEDAATYYCQQWTSNPPTFGGGTKVEIK

binding result (CD20 [1]): binds
B2: humanized anti-CD20 antibody 3637 (antibody, human IgG1, V domains shown)
VH: B1 VH with N33T, G56S, S59N, Y107N, N109E
VL: B1 VL with N93K
notes: CDR-optimized variant (hVH-2 / hVK-2)

binding result (CD20 [2]): binds
B3: humanized anti-CD20 antibody 1535 (antibody, human IgG1, V domains shown)
VH: B1 VH with A40P, K74E
VL: B1 VL

binding result (CD20 [2]): binds
B4: humanized anti-CD20 antibody 1634 (antibody, human IgG1, V domains shown)
VH: B1 VH
VL: B1 VL with P45S

binding result (CD20 [2]): binds
B5: humanized anti-CD20 antibody 1534 (antibody, human IgG1, V domains shown)
VH: B1 VH with A40P, K74E
VL: B1 VL with P45S
